T1: TCF/Pangolin HMG + C-clamp fragment (UniProt P91943 273-400)
T1 sequence: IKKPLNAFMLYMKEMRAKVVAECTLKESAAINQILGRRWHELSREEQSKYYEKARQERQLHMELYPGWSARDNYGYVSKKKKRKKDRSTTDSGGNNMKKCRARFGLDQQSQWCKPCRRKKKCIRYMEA


Molecular target: T1, TCF/Pangolin HMG + C-clamp fragment
Assay: competition EMSA; labeled AK6 probe; 10 mM Tris-HCl pH 7.5, 50 mM KCl, 1 mM DTT, 50 mM MgCl2 (so in the source), 0.05% NP40, 3.5% glycerol, 50 ug/ml poly(dIdC); 6 pmol protein, 0-2.4 pmol competitor, 20
Details: protein: recombinant, tags: His (pET52b(+), XmaI/SacI), blunt

| Binder | IC50 [nM] | IC50 (printed reverse strand is mismatched at its last 2 nt (atcgac vs atcgta)) [nM] |
| --- | --- | --- |
| RW0 competitor (dsDNA) DNA 1: TGGTACGATAAGATCAAAGGTGGCGGCGTCGTACAC DNA 2: GTGTACGACGCCGCCACCTTTGATCTTATCGTACCA | 189 | – |
| FF0 competitor (dsDNA) DNA 1: TGGTACGATCCTTTGATCTTGCCGCCAGTCGTACAC DNA 2: GTGTACGACTGGCGGCAAGATCAAAGGATCGTACCA | 9.4 | – |
| AK6 competitor (dsDNA) DNA 1: TACGATAAGATCAAAGGTGCAGTGCCGCCAGTCGTA DNA 2: TACGACTGGCGGCACTGCACCTTTGATCTTATCGAC | – | 5.1 |
| KK6 competitor (dsDNA) DNA 1: TACGATCCTTTGATCTTTGCAGTTGGCGGCGTCGTA DNA 2: TACGACGCCGCCAACTGCAAAGATCAAAGGATCGTA | 99.7 | – |
